{"source": "the nanobody polyreactivity screen of Harvey et al. (2022)", "data": [{"test": "yeast display, Sf9 membrane polyspecificity reagent, FACS + sequencing; frameworks hold sequencing errors", "how_it_was_run": "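A nanobody's polyreactivity label depends on the gate it was sorted from. Yeast display cells were stained with 10% biotinylated, detergent-solubilized Sf9 membrane reagent for 1 hour at 4 °C, enriched on streptavidin microbeads and sorted by FACS. The low and high (top ~1%) gates were set on anti-HA fluorescence for expression and streptavidin fluorescence for reagent binding.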", "values": [{"sequence": "QVQLVESGGGLVQAGGSLRLSCAASGNIFSDYAMGWYRQAPGKERELVAAISSGGNTNYADSVKRRFSISRDNAKNTVYLEMNSLKPEDTAVYYCAAVYNTTYTLLPEYSDVKYYYWGQGTQVTVSS", "polyreactivity (PSR sort gate)": "low polyreactivity"}, {"sequence": "QVQLVETGGGLVQAGGSLRLSCAASGRIFWWYAMGWYRQAPGKERELVAAISTGSRTYYADSVKGRFTISRDNAKNTVYLQMNSLKPEDTAVYYCVADGLYSVSRSSIFEYWGQGTQVTVSS", "polyreactivity (PSR sort gate)": "low polyreactivity"}, {"sequence": "QVQLQESGGHLEQSGGSLRLSCTASGTISDVRVMGWYRQAPGKERELVATISYVTITYYADSVKGRFTISRDSEKHRVSADDEPETGRYRGVLLRYYWGLGTQVTVSS", "polyreactivity (PSR sort gate)": "low polyreactivity"}, {"sequence": "QVQLVESGGGLVQAGGSLRLSCAASMGLYRQAPGKERDLVATITSDAGTNYADSVKGRFTISRDNAKNTVYLQRNSLKPEDTAVYYCNADGYDSSDFGEGDYWGQVTQVTVSS", "polyreactivity (PSR sort gate)": "low polyreactivity"}, {"sequence": "QFQLVESGGGLVQAGGSLRLSCAASGSTFGSYAMGWYRQAPAKESELVAAITASGGSTNYADSVKGRFTISRDNAKNTVYLQMNSLKPEDTAVYYCAADTTYSPLSIEYDYWGQGTQVTVSS", "polyreactivity (PSR sort gate)": "low polyreactivity"}, {"sequence": "QVQLVESGGGLVQAGGSLRLSCAASGRIFGLYSRGSYRQAPGKERELVAAISSRGGSTYYADSVKGRFTISRDNAKNTVYLQMNSLKPEDTAVYYCARETSYFGPSDYDYWGQGTQVTVSS", "polyreactivity (PSR sort gate)": "high polyreactivity"}, {"sequence": "QVQLVESGGGLVQAGGSLRLSCAASGRIFVPYAMGWYRQAPGKERELVAGITSGSRTNYADSVKGRFTISRDNAKYTVYLQMNSLKPEDTEVYYCNALDFRYYGIFDYWGQGTQVTVSS", "polyreactivity (PSR sort gate)": "high polyreactivity"}, {"sequence": "QVQLVETGGGLDQAGGSLRLSCAASGRIFRKYVMGWYRQAPGKERELVAVISSGASTNYADSVKGRFTISRDNAKNTVYLQMNSLKPEDTAVYYCAKYGKYTWRQGGYWGQGTQVTVSS", "polyreactivity (PSR sort gate)": "high polyreactivity"}, {"sequence": "QVQLVESGGGLVQEGGSLRLSCASSGSTFRYNVMGWYRQAPGKERELVAAITRRGSRTYYADSVKGRFTISRDNAKNTVYLHMNSLKPADTAVYDCNKNSLSVPANDDYWGQGTQVTVSS", "polyreactivity (PSR sort gate)": "high polyreactivity"}, {"sequence": "QVQLVESGGGLVQAGGSLRFSCVASGSIFRGNAKGWYRQAPGKERELVASISKGGGSTYYADSVKGRFLISRDNAKNTVYLQMNSLKPEDTAVYYCAARGGLDGIQYDYDYWGQGTQVTVSS", "polyreactivity (PSR sort gate)": "low polyreactivity"}, {"sequence": "QVQLVESGGGLVQAGGSLRLSCAASGSIFGPYAMGWYRQAPGKERELVASITNSGSTYYADSVKGRFTISRDNAKNTVYLQMNSLKPEDTAVYYCAVDERTWINDPEEYDYWGQGTQVTVSS", "polyreactivity (PSR sort gate)": "low polyreactivity"}, {"sequence": "QVQLVESGGGLVQAGGSLRLSCAASGLIFPYYAMGWYREAPGKARELVASIRYSAGNTYYADSVKGRFTISRDNAKNTVYLQMNSLKPEDTAVYYCWYTQNTLGNYWGQGTQVTVSS", "polyreactivity (PSR sort gate)": "low polyreactivity"}, {"sequence": "QVQLVESGGGLVQAGGSLRLSCAASGSIFGYNAMGWSRPAPGKERELVAAITSSGGSTYYADSVKGRFTISRDNAKNTVYLQMNSLKPEDTAVYYCNARDWYIVWYDYWGQGTQVTVSS", "polyreactivity (PSR sort gate)": "low polyreactivity"}, {"sequence": "QLQLVESGGGLVQAGGSLRLSCAASGFTFRWNAMGWYRQAPGKERELLAAITNDDSTYYADSVKGRFTISRDNAKNSVYLQLNSLKPEDTAVYYCNARYGRYLDLDTGVALAGRGYWGQGTQVTVSS", "polyreactivity (PSR sort gate)": "low polyreactivity"}, {"sequence": "QVQLVESGGGLVQAGGSLRLSCAASGSTFRRYAMGWYRQAPGKERELVAGISYSGGRTYYADSVKGRFTISRDNAKNTVYLQMNSLKPEDTAVYYCAAKSFPSVRHHENYYWGQVTQVTVSS", "polyreactivity (PSR sort gate)": "high polyreactivity"}, {"sequence": "QVKLVESGGGLVQAGGSLRLSCAASGRIFGRNTMGWYRQAPGKEREFVATITSGGSTYYADSVKGRFTISRDNAKNTVYLQMNSLKPEDTAVYYFNARGYSWRWYPLTSDYDSWGQGTQVTVSS", "polyreactivity (PSR sort gate)": "high polyreactivity"}, {"sequence": "QVQLVESGGGLVQAGGSLRLSCAASGSIFEWYAMGWYRQAPGKERELVAAISSSGTSTYYADSVKGRFTISRDNAKNTVYLQMNSLKPEDTAVYYCNTDLSRLSQHDYWGQGTQVTVSS", "polyreactivity (PSR sort gate)": "low polyreactivity"}, {"sequence": "QVQLVESGGGLVQAGGSLRLSCAASGSTFVWYDMGWYRQAPGKERELVATITSGGITTYADSVKGRFTISRDNAKNTVYLQMNSPKPEDTAVYYCNADLYYWLRYYDRNEYRGQGTQVTVSS", "polyreactivity (PSR sort gate)": "low polyreactivity"}, {"sequence": "QVQLVESGGGLDQAGGSLRLSCAASGFIFITYEMGWYRQAPGKQMELVAVITSGGTTNYADSVKGRFTISRDNAKNTVYLQMNSLKPEDTAVYYCAAEDYVIGDSGYDYWGQGTQVTVSS", "polyreactivity (PSR sort gate)": "low polyreactivity"}, {"sequence": "QVQLVDSGGGLVQAGGSLRLSCAASGSTFDPYTMGWYRQAPGTERELVAGMTGGGSTYYADCVKGRFTISRDNAKNTVYLQMNSLKPEDTAVYYCARDYSYYKGPDGHYWGQGTQVTVSS", "polyreactivity (PSR sort gate)": "low polyreactivity"}, {"sequence": "QVQLVESGGGLVQAGGSLRLSCAASGRTFGVNAMGWYRQAPRKERELVAAINRGGSTYYADSVKGRFTISRDNAKNTVYLQMISLNPEDTAVYYCAAYVSAVHGISGYWGQGTQVTVSS", "polyreactivity (PSR sort gate)": "low polyreactivity"}, {"sequence": "QVQLVESGGGLVQAGGSLRLSCAASGSTFRRNAMGWYRQAPGKERELVAAITRRGGTYYADSVKGRFTISRDNAKNTVYLQMNSLKPEDTAVYYCAADRSYYDWRYGGFDYWGQGTQVTVSS", "polyreactivity (PSR sort gate)": "high polyreactivity"}, {"sequence": "QVQLVESGGGLVQAGGSLRLSCAASGSIFHLYAMGWYRQAPGKEREFVAAISSSGGLTYYADSVKGRFTISRDNAKNTVYLQMNSLKPEDTEVYYCATAEQYGTKLRKVSYQYDYWGQGTQVTVSS", "polyreactivity (PSR sort gate)": "low polyreactivity"}, {"sequence": "QVQLVESGGGLVQAGGSLRLSCAASGSIFAANVMGWYRQAPGKERELVAVISGGGGRTFYADSVKGRFTISRDNAKNTVYLQMNSLKPEDTAVYYCAADRRDRSPYYYWGQGTQVTVSS", "polyreactivity (PSR sort gate)": "high polyreactivity"}, {"sequence": "QVQLVESGGGLVQAGGSLRLSCAASGRIFAWNAMGCYRQAPGKERELVAGISGSGGSTYYADSVKGRFTISRDNAKNTVYFQMNSLKPEDTAVYYCAARRRYDGWGGYWGQGTQVTVSS", "polyreactivity (PSR sort gate)": "high polyreactivity"}, {"sequence": "QVQLVESGGGLVQAGGSLRLSCAASGFTFDSYAMGWYRQAPRKERELVAAITSDGSTYYADSVKGRFTISRDNAKNNVYLQMNSLKAEDTAVYYCAADGISLYATAYDYWGQGTQVTVSS", "polyreactivity (PSR sort gate)": "low polyreactivity"}, {"sequence": "QVQLVESGGGLVQAGGSLRLSCAASGSIFSYYAMGWYRQAPGKERELVAVISSSGGRTYYADSVKGRFTISRDNAKNTVYLQMNSLKPEDTAVYYCAAKYRVFYGFDYWGQGTQVTVSS", "polyreactivity (PSR sort gate)": "high polyreactivity"}, {"sequence": "QVQLVETGGGLVQAGGSLRLSCAASGITFKNYAMGWYRQANGKERELVATINRGSRTNYADSVKGRFTISRDNAKNTVYLQMNSLKPEDTAVYYCNVDQANYRWVPWEMDYWGQGSQVTVSS", "polyreactivity (PSR sort gate)": "low polyreactivity"}, {"sequence": "QVQLVESRGGLVQAGGSLRLSCAASGFIFDKYAMGWYRQAPGKERELVATITSGGSTYYADSVKGRFTISRDNAKNTVYLQMNSLKPEDTAVYYCAALDYGYRWYRYYYWGQGTQVTVSS", "polyreactivity (PSR sort gate)": "high polyreactivity"}, {"sequence": "QVQLVESGGGLVQAGGSLRLSCAASGSTFSSYVMGWYRQAPGKERELVAAISSIGGSTYYADSVKGRFTISRDNAKNTVYLQMNSLKPEDTAVYYCNADYVIYFGLYEYWGQGTQVTVSS", "polyreactivity (PSR sort gate)": "low polyreactivity"}, {"sequence": "QVQLVESGGGLVQAGGSLRLSCAASGSTFYPNAMGWYIQAPGKERELVADITISGGRTYYADSVKGLFTISRDNAKNTVYLQMNSLKPEDTAVYYCNTRGIFFQSQTHDYWGQGTQVTVSS", "polyreactivity (PSR sort gate)": "low polyreactivity"}, {"sequence": "QVQLVESGGGLVQAGGSLRLSCAASGSIFTSNAMGWYRQAPGKERELVAAITSDGAITYADSVKGRFTISRDNAKNTVYLQMNSLKPEDTAVYYCATEIEYYVGSVADMGYWGQGTQVTVSS", "polyreactivity (PSR sort gate)": "low polyreactivity"}, {"sequence": "QVQLVESGGGLVQAGGSLRLSCAASGSTLAKYAMGWYRQAPGKERELVAAISRSGGRTYYADSEKGRFTISRDNAKNSVYLQMNSLKPEETAVYYCAARARSSRTYHDDYWGQGTQVTVSS", "polyreactivity (PSR sort gate)": "high polyreactivity"}, {"sequence": "QVQLVESGGGLVQAGGSLRLSCAASGRIFRRYAMGWYRQAPGKEREFVAAISYGGGSTYYADSVKGRFTISRDNAKNTVYLQMNSLKPEDTAVYYCNADEVVWGYNYWGQGTQVTVSS", "polyreactivity (PSR sort gate)": "low polyreactivity"}, {"sequence": "QVQLVESGGCLVQAGGSLRLSCAASGSTFVYNTMGWYRQAPGKERELVASISSDGNTYYADSVKGRFTISRDNAKNTVYLQMNSLKPEDTAVYYCAARYYYDWRFVGYDYWGQGTQVTVSS", "polyreactivity (PSR sort gate)": "low polyreactivity"}, {"sequence": "QVQLVESGGGLVQAGGSLRLSCADSGSIFRRNAMGWYRQAPGKERELVAGIRGSGGSTYYADSVKGRFTISRDNAKNTVYLQMNSLKPEDTAVYYCAARRSYYHGSYDYWGQGTQVTVSS", "polyreactivity (PSR sort gate)": "high polyreactivity"}, {"sequence": "QVHLVESGGGLVQAGGSLRLSCAASGRIFFTNAMGWYRQAPGKERELVATISSSDGSTYYADSVKGRFTISRDNAKYTVYLQMNSLKPEDTAVYYCAALYSFRGSRQYTYKYYYWGLGTQVTVSS", "polyreactivity (PSR sort gate)": "high polyreactivity"}, {"sequence": "QVQLVESGGGLVQAGGSLRLSCAASGRTFAANTMGWYRQAPGKERELVAAINSGGSTYYADSVKGRFTISRDNAKNTVYLHMNSLKPEATAVYYCAVSWWEVPRIFGYSSRYDYWGQGTQVTVSS", "polyreactivity (PSR sort gate)": "high polyreactivity"}, {"sequence": "QVQLVESGGGLVQAGGSLRLSCAASGSTYATNAMRWYRQAPGKERELVATISWSGGSTYYADSVKGRFTISRDNAKNTVYLQMNSLKPEDTAVYYCAADWSNLGAYDYWGQGTQVTVSS", "polyreactivity (PSR sort gate)": "low polyreactivity"}, {"sequence": "QVQLVESGGGLVQAGGSLRLSCPSSGIIFYYYAMGWYRQAPGKERELVAAINFSVGGTYYADSVKGRFTISRDNAKNTVYLQMNSEKPEDTEVYYCAKDIVIPATYVEYDYWGQGTQVTVSS", "polyreactivity (PSR sort gate)": "low polyreactivity"}, {"sequence": "QVQLVESGGGLVQAGGSLRLSCAASAYTFYAMGWYRQAPGKERELVAAITYRGARTYYADSVKRRFTISRDNEKNTVYLQMNSLKPEYTAVYYCNADYWGQGTQVTVSS", "polyreactivity (PSR sort gate)": "low polyreactivity"}, {"sequence": "QVQLVESGGGLVQAGGSLRLSCAASGRIFSTNAMGWYLQAPGKERELVAGINSGGSTNYADSVKGRFTISRDNAKNTVYLQMNSLKPEDTAVYYCNASLPVDSWYVQYGVDYDYWGQVTQVTVSS", "polyreactivity (PSR sort gate)": "low polyreactivity"}, {"sequence": "QDQHVESGGGLVQAGGSLRLICAASGSIIQVYAIGWYRQAPGKEREFVASITRTGGSTKYADSVKGRFTISRDNAKNTVYLQMNSLKPEDTAFFYCNAVPRSWSPYRHWFDYWGQGTQVTVSS", "polyreactivity (PSR sort gate)": "low polyreactivity"}]}]}
